Assay results: publication PMC8516343

Legend:
[1] = molecular target: βTrCP1 (UniProt Q9Y297); test: co-immunoprecipitation; conditions: reference: ATF4 wild type; sites S219
[2] = molecular target: βTrCP1 (UniProt Q9Y297); test: anti-Myc co-IP, anti-Flag blot; conditions: reference: Myc-ATF4-WT with Flag-CK1δ; sites S219

Row | Substance | binding against the reference [1] | binding against the reference [2]
1 | ATF4 (from UniProt P18848) ATF4-S219A | lost | –
2 | ATF4 (from UniProt P18848) Myc-ATF4-S219A with Flag-CK1δ | – | weaker
